Data: patent publication US20060045881A1, “Anti-cancer vaccines” (Board of Regents, The University of Texas System, priority 2004, published 2006)

Biological target: HLA-A2.1 (HLA-A*0201) on the surface of T2 cells (human)

B1: Influenza B nucleoprotein peptide (aa 85-94), P04665 85-94 (peptide)
peptide: KLGEFYNQMM
modifications: not checked
Median Channel of Fluorescence of HLA-A2 Expression on T2 (median channel of fluorescence): 194
